Test in all cases: fluorescence polarisation
On the technique in general: In fluorescence polarisation assays a small probe gives low polarisation when free and higher when bound to something large.

Assay [1] deals with T1, DegS T167V/H198P (E. coli, UniProt P0AEE3 27-355, T167V | H198P).
T1 sequence (looked up): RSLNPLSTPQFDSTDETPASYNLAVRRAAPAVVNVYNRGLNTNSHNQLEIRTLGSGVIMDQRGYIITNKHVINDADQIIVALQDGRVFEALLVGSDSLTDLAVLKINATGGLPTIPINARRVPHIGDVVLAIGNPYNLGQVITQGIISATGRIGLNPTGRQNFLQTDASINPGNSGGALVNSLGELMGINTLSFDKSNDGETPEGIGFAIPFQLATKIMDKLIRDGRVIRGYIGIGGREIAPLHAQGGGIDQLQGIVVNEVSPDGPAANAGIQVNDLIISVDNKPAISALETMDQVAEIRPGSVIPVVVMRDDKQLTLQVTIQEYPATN

The target in assay [2] is T2, DegS I179A (E. coli, UniProt P0AEE3 27-355, I179A).
T2 sequence (looked up): T1 sequence (looked up) with V141T, I153A, P172H

Assay [3] addresses T3, DegS P161A (E. coli, UniProt P0AEE3 27-355, P161A).
T3 sequence (looked up): T1 sequence (looked up) with P135A, V141T, P172H

Assay [4] addresses T4, DegS H198P/F234A (E. coli, UniProt P0AEE3 27-355, H198P | F234A).
T4 sequence (looked up): T1 sequence (looked up) with V141T, F208A

The target in assay [5] is T5, DegS R178A (E. coli, UniProt P0AEE3 27-355, R178A).
T5 sequence (looked up): T1 sequence (looked up) with V141T, R152A, P172H

Assay [6] addresses T6, DegS Y162A (E. coli, UniProt P0AEE3 27-355, Y162A).
T6 sequence (looked up): T1 sequence (looked up) with Y136A, V141T, P172H

Numbering of substitutions follows the chain as printed. Where no end group is shown, it is not given here. fluorescein = fluorescein, a fluorescent label on the peptide N-terminus

B1: fluorescent OMP peptide fluorescein-DNRDGNVYYF (peptide)
peptide: fluorescein-DNRDGNVYYF
For orientation: Kd means the equilibrium constant for the complex coming apart. With B1, the Kd is 1900 ± 700 nM in assay [1]; 2300 ± 400 nM in assay [2]; 1500 ± 100 nM in assay [3]; 2900 ± 100 nM in assay [4]; 3600 ± 200 nM in assay [5]; 1900 ± 400 nM in assay [6].

Source of the values: article PMC4351158 (Structure (London, England : 1993), 2015).
